B1: library; a variant is named by its letters at N, in order (parent)
chain: GCUGUCACCGAGAAACUGUGAAGUAUAUCUUAAACCUGGGCACUUAAAAGAUAUAUGGAGUUAGUAGUGCAACCUGCUCGGUCUGAUGAGUCCNNNNNNGGACGAAACAGC

± gives the standard deviation of the averaged measurements.

Variants of B1 are the subject of data set [1]. As to the kind of experiment: normalized RNA/DNA level without ligand (relative to sTRSVctl = 100) (log10 (% of sTRSVctl)); HEK293T; ligand: cyclic di-GMP (c-di-GMP-II aptamer); higher = less ribozyme self-cleavage, higher mRNA level. To be noted: reporter: mCherry (pCS4076), ligand present: no. In outline: (§1)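 Only sequences with at least 100 DNA reads were analyzed, from HEK293T cells transfected with 4 µg per 6-well well of ribozyme switch library plasmids 72 h before RNA extraction with EDTA. Any ligand was added 1 h before transfection. RNA level was defined as RNA over DNA reads, normalized to a spiked-in non-cleaving sequence or to the top sequences, then scaled and log-transformed. The top set was 25 sequences, and the scaling was ×100 followed by log10.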

Data set [2] covers variants of B1. As to the kind of experiment: normalized RNA/DNA level with ligand (relative to sTRSVctl = 100) (log10 (% of sTRSVctl)); HEK293T; ligand: cyclic di-GMP (c-di-GMP-II aptamer); ligand concentration (+) RNA-Seq: 1 mM; higher = less ribozyme self-cleavage, higher mRNA level. To be noted: reporter: mCherry (pCS4076), ligand present: yes. In outline:
as §1

Consider GCUGUCACCGAGAAACUGUGAAGUAUAUCUUAAACCUGGGCACUUAAAAGAUAUAUGGAGUUAGUAGUGCAACCUGCUCGGUCUGAUGAGUCCUAGCCUGGACGAAACAGC, for which the “normalized RNA/DNA level without ligand (log10)” value in data set [1] amounted to 1.73 ± 0.03. Also, the “normalized RNA/DNA level with ligand (log10)” value in data set [2] was found to be 1.86 ± 0.043.
Turning to GCUGUCACCGAGAAACUGUGAAGUAUAUCUUAAACCUGGGCACUUAAAAGAUAUAUGGAGUUAGUAGUGCAACCUGCUCGGUCUGAUGAGUCCUAGCCAGGACGAAACAGC, the “normalized RNA/DNA level without ligand (log10)” value in data set [1] was found to be 1.71 ± 0.04. The “normalized RNA/DNA level with ligand (log10)” value in data set [2] is 1.86 ± 0.1.
Taken in the same sequence, the figures for GCUGUCACCGAGAAACUGUGAAGUAUAUCUUAAACCUGGGCACUUAAAAGAUAUAUGGAGUUAGUAGUGCAACCUGCUCGGUCUGAUGAGUCCUAGCCGGGACGAAACAGC were 1.79 ± 0.063 and 1.93 ± 0.12.
Take GCUGUCACCGAGAAACUGUGAAGUAUAUCUUAAACCUGGGCACUUAAAAGAUAUAUGGAGUUAGUAGUGCAACCUGCUCGGUCUGAUGAGUCCCAGCAUGGACGAAACAGC: the “normalized RNA/DNA level without ligand (log10)” value in data set [1] was 1.56 ± 0.1. Further, the “normalized RNA/DNA level with ligand (log10)” value in data set [2] is 1.72 ± 0.075.
Taken in the same sequence, the figures for GCUGUCACCGAGAAACUGUGAAGUAUAUCUUAAACCUGGGCACUUAAAAGAUAUAUGGAGUUAGUAGUGCAACCUGCUCGGUCUGAUGAGUCCCAGCAGGGACGAAACAGC were 1.79 ± 0.028 and 1.85 ± 0.12.
With GCUGUCACCGAGAAACUGUGAAGUAUAUCUUAAACCUGGGCACUUAAAAGAUAUAUGGAGUUAGUAGUGCAACCUGCUCGGUCUGAUGAGUCCCAGCACGGACGAAACAGC, the “normalized RNA/DNA level without ligand (log10)” value in data set [1] came out at 1.65 ± 0.067. Also, the “normalized RNA/DNA level with ligand (log10)” value in data set [2] worked out at 1.79 ± 0.025.
Taken in the same sequence, the figures for GCUGUCACCGAGAAACUGUGAAGUAUAUCUUAAACCUGGGCACUUAAAAGAUAUAUGGAGUUAGUAGUGCAACCUGCUCGGUCUGAUGAGUCCAAGCAUGGACGAAACAGC were 1.655 ± 0.0071 and 1.82 ± 0.1.
As to GCUGUCACCGAGAAACUGUGAAGUAUAUCUUAAACCUGGGCACUUAAAAGAUAUAUGGAGUUAGUAGUGCAACCUGCUCGGUCUGAUGAGUCCAAGCAGGGACGAAACAGC, the “normalized RNA/DNA level without ligand (log10)” value in data set [1] was 1.79 ± 0.081. For the same variant, the “normalized RNA/DNA level with ligand (log10)” value in data set [2] amounted to 1.9 ± 0.11.
Taken in the same sequence, the figures for GCUGUCACCGAGAAACUGUGAAGUAUAUCUUAAACCUGGGCACUUAAAAGAUAUAUGGAGUUAGUAGUGCAACCUGCUCGGUCUGAUGAGUCCGAGCCCGGACGAAACAGC were 1.81 ± 0.1 and 1.92 ± 0.16.
In the case of GCUGUCACCGAGAAACUGUGAAGUAUAUCUUAAACCUGGGCACUUAAAAGAUAUAUGGAGUUAGUAGUGCAACCUGCUCGGUCUGAUGAGUCCGAGCCGGGACGAAACAGC, the “normalized RNA/DNA level without ligand (log10)” value in data set [1] is 1.823 ± 0.0091. Moreover, the “normalized RNA/DNA level with ligand (log10)” value in data set [2] came to 1.9 ± 0.11.
Turning to GCUGUCACCGAGAAACUGUGAAGUAUAUCUUAAACCUGGGCACUUAAAAGAUAUAUGGAGUUAGUAGUGCAACCUGCUCGGUCUGAUGAGUCCGAGCCAGGACGAAACAGC, in data set [1], the “normalized RNA/DNA level without ligand (log10)” value was 1.79 ± 0.051. For the same variant, in data set [2], the “normalized RNA/DNA level with ligand (log10)” value came out at 1.87 ± 0.1.
Turning to GCUGUCACCGAGAAACUGUGAAGUAUAUCUUAAACCUGGGCACUUAAAAGAUAUAUGGAGUUAGUAGUGCAACCUGCUCGGUCUGAUGAGUCCAAGAUUGGACGAAACAGC, in data set [1], the “normalized RNA/DNA level without ligand (log10)” value stood at 1.63 ± 0.043. Further, the “normalized RNA/DNA level with ligand (log10)” value in data set [2] stood at 1.8 ± 0.054.
On to GCUGUCACCGAGAAACUGUGAAGUAUAUCUUAAACCUGGGCACUUAAAAGAUAUAUGGAGUUAGUAGUGCAACCUGCUCGGUCUGAUGAGUCCAAGAUGGGACGAAACAGC, for which, in data set [1], the “normalized RNA/DNA level without ligand (log10)” value is 1.49 ± 0.055. Besides, the “normalized RNA/DNA level with ligand (log10)” value in data set [2] came to 1.71 ± 0.075.
On the same counts, the results for GCUGUCACCGAGAAACUGUGAAGUAUAUCUUAAACCUGGGCACUUAAAAGAUAUAUGGAGUUAGUAGUGCAACCUGCUCGGUCUGAUGAGUCCCAGCCGGGACGAAACAGC are 1.847 ± 0.0028 and 1.9 ± 0.074.
Taken in the same sequence, the figures for GCUGUCACCGAGAAACUGUGAAGUAUAUCUUAAACCUGGGCACUUAAAAGAUAUAUGGAGUUAGUAGUGCAACCUGCUCGGUCUGAUGAGUCCCAGCCUGGACGAAACAGC were 1.59 ± 0.055 and 1.79 ± 0.12.
On the same counts, the results for GCUGUCACCGAGAAACUGUGAAGUAUAUCUUAAACCUGGGCACUUAAAAGAUAUAUGGAGUUAGUAGUGCAACCUGCUCGGUCUGAUGAGUCCUAGCAUGGACGAAACAGC are 1.653 ± 0.0034 and 1.8 ± 0.11.
For GCUGUCACCGAGAAACUGUGAAGUAUAUCUUAAACCUGGGCACUUAAAAGAUAUAUGGAGUUAGUAGUGCAACCUGCUCGGUCUGAUGAGUCCUAGCAAGGACGAAACAGC, the “normalized RNA/DNA level without ligand (log10)” value in data set [1] was 1.716 ± 0.0099. Further, the “normalized RNA/DNA level with ligand (log10)” value in data set [2] came to 1.84 ± 0.087.
Taken in the same sequence, the figures for GCUGUCACCGAGAAACUGUGAAGUAUAUCUUAAACCUGGGCACUUAAAAGAUAUAUGGAGUUAGUAGUGCAACCUGCUCGGUCUGAUGAGUCCUAGCACGGACGAAACAGC were 1.708 ± 0.0035 and 1.83 ± 0.095.
In the case of GCUGUCACCGAGAAACUGUGAAGUAUAUCUUAAACCUGGGCACUUAAAAGAUAUAUGGAGUUAGUAGUGCAACCUGCUCGGUCUGAUGAGUCCUAGCAGGGACGAAACAGC, the “normalized RNA/DNA level without ligand (log10)” value in data set [1] amounted to 1.82 ± 0.032. Moreover, the “normalized RNA/DNA level with ligand (log10)” value in data set [2] was 1.85 ± 0.032.
For the variant GCUGUCACCGAGAAACUGUGAAGUAUAUCUUAAACCUGGGCACUUAAAAGAUAUAUGGAGUUAGUAGUGCAACCUGCUCGGUCUGAUGAGUCCCAGAUUGGACGAAACAGC, the “normalized RNA/DNA level without ligand (log10)” value in data set [1] was 1.48 ± 0.11. In addition, the “normalized RNA/DNA level with ligand (log10)” value in data set [2] was found to be 1.65 ± 0.1.
Taken in the same sequence, the figures for GCUGUCACCGAGAAACUGUGAAGUAUAUCUUAAACCUGGGCACUUAAAAGAUAUAUGGAGUUAGUAGUGCAACCUGCUCGGUCUGAUGAGUCCUAGAUUGGACGAAACAGC were 1.6 ± 0.028 and 1.79 ± 0.067.
On the same counts, the results for GCUGUCACCGAGAAACUGUGAAGUAUAUCUUAAACCUGGGCACUUAAAAGAUAUAUGGAGUUAGUAGUGCAACCUGCUCGGUCUGAUGAGUCCGAGCAAGGACGAAACAGC are 1.76 ± 0.023 and 1.83 ± 0.12.
In the case of GCUGUCACCGAGAAACUGUGAAGUAUAUCUUAAACCUGGGCACUUAAAAGAUAUAUGGAGUUAGUAGUGCAACCUGCUCGGUCUGAUGAGUCCGAGCAUGGACGAAACAGC, in data set [1], the “normalized RNA/DNA level without ligand (log10)” value is 1.83 ± 0.037. Besides, the “normalized RNA/DNA level with ligand (log10)” value in data set [2] is 1.91 ± 0.11.
On the same counts, the results for GCUGUCACCGAGAAACUGUGAAGUAUAUCUUAAACCUGGGCACUUAAAAGAUAUAUGGAGUUAGUAGUGCAACCUGCUCGGUCUGAUGAGUCCGAGCACGGACGAAACAGC are 1.82 ± 0.053 and 1.87 ± 0.077.
On the same counts, the results for GCUGUCACCGAGAAACUGUGAAGUAUAUCUUAAACCUGGGCACUUAAAAGAUAUAUGGAGUUAGUAGUGCAACCUGCUCGGUCUGAUGAGUCCGAGAUGGGACGAAACAGC are 1.748 ± 0.0058 and 1.83 ± 0.071.
Taken in the same sequence, the figures for GCUGUCACCGAGAAACUGUGAAGUAUAUCUUAAACCUGGGCACUUAAAAGAUAUAUGGAGUUAGUAGUGCAACCUGCUCGGUCUGAUGAGUCCAAGCCGGGACGAAACAGC were 1.732 ± 0.0043 and 1.82 ± 0.069.

These data come from the supplement of paper PMC6757056.
